The target in this test is CD16a ectodomain (Human CD16a, amino acids Met1-Gln208, C-terminal His-tag) (human). As to the kind of experiment: BLI. On the technique in general: BLI is a label-free optical method that tracks binding on a fibre tip over time.

The term Kd denotes the constant that tells how readily two partners part at equilibrium. Read a low Kd as a tighter complex. For the substance “SARS-CoV-2 ORF8 (aa16-121), His Tag (from UniProt P0DTC8 16-121) (natural protein)”, the Kd came to 38.9 nM.
